How the values were obtained:
[1] = target: phenylalanyl-glycyl-phenylalanyl-hydroxylglycine
[2] = target: phenylalanyl-glycyl-phenylalanyl-glycine

Enzyme activity n mole/h/ml medium; substrate PheGlyPhehydroxyGly, product PheGlyPhe-NH2 + glyoxylic acid [1] | Enzyme activity n mole/h/ml medium; substrate PheGlyPheGly, product PheGlyPhe-hydroxyGly [2] | Substance
< 2 nmol/h/mL | 2.8 nmol/h/mL | enzyme expressed by plasmid SV-a (rat; signal sequence + N-terminal domain) (from UniProt P14925)
10.8 nmol/h/mL | 0.4 nmol/h/mL | enzyme expressed by plasmid SV-b (rat; signal sequence + C-terminal domain) (from UniProt P14925)
4.2 nmol/h/mL | 2.5 nmol/h/mL | enzymes expressed by plasmid SV-203 (rat; signal sequence + N-terminal domain + C-terminal domain) (from UniProt P14925)

Reference: US6156555
